The text below walks through data of article PMC5787697, “Transcriptome-wide identification of the RNA-binding landscape of the chromatin-associated protein PARP1 reveals functions in RNA biogenesis”.

The target of data set [1] is T1, PARP1-ΔZn3 (human, UniProt P09874 1-1014, del232-374). The data set is described as follows: EMSA; lowest affinity, within 2-3 fold of FL; Table 2 value not in material; 25 mM Tris pH 7.5, 75 mM NaCl, 50 mM arginine, 0.1 mM TCEP, 0.1 ug/ul BSA, room temperature 30 min; 0.05 uM probe, 0-2.5 uM protein; native 10% PAGE in TBE. The following applies: protein: recombinant; tags: His; chain copies: 2; label: 5'-32P; single strand. In general terms: In EMSA bound probe runs differently from free probe, usually more slowly.

The target in data set [2] is T2, PARP1-ΔBRCT (human, UniProt P09874 1-1014, del367-494). The data set is described as follows: EMSA; Table 2 value not in material; 25 mM Tris pH 7.5, 75 mM NaCl, 50 mM arginine, 0.1 mM TCEP, 0.1 ug/ul BSA, room temperature 30 min; 0.05 uM probe, 0-2.5 uM protein; native 10% PAGE in TBE. The conditions noted are these: protein: recombinant; tags: His; chain copies: 2; label: 5'-32P; single strand.

Data set [3] deals with T3, PARP1-ΔWGR (human, UniProt P09874 1-1014, del518-654). Kind of data set: EMSA; affinity not significantly changed from FL; Table 2 value not in material; 25 mM Tris pH 7.5, 75 mM NaCl, 50 mM arginine, 0.1 mM TCEP, 0.1 ug/ul BSA, room temperature 30 min; 0.05 uM probe, 0-2.5 uM protein; native 10% PAGE in TBE. The conditions noted are these: protein: recombinant; tags: His; chain copies: 2; label: 5'-32P; single strand.

Data set [4] has as its target T1, PARP1-ΔZn3. The data set is described as follows: EMSA; monomer-equivalent K, n=1.41±0.08; 25 mM Tris pH 7.5, 75 mM NaCl, 50 mM arginine, 0.1 mM TCEP, 0.1 ug/ul BSA, room temperature 30 min; 0.05 uM probe, 0-2.5 uM protein; native 10% PAGE in TBE. The following applies: protein: recombinant; tags: His; chain copies: 2; label: 32P; single strand.
Data set [5] has as its target T2, PARP1-ΔBRCT. Kind of data set: EMSA; monomer-equivalent K, n=2.23±0.10; 25 mM Tris pH 7.5, 75 mM NaCl, 50 mM arginine, 0.1 mM TCEP, 0.1 ug/ul BSA, room temperature 30 min; 0.05 uM probe, 0-2.5 uM protein; native 10% PAGE in TBE. The following applies: protein: recombinant; tags: His; chain copies: 2; label: 32P; single strand.
For data set [6], the target named is T3, PARP1-ΔWGR. The data set is described as follows: EMSA; monomer-equivalent K, n=1.04±0.11; 25 mM Tris pH 7.5, 75 mM NaCl, 50 mM arginine, 0.1 mM TCEP, 0.1 ug/ul BSA, room temperature 30 min; 0.05 uM probe, 0-2.5 uM protein; native 10% PAGE in TBE. The conditions noted are these: protein: recombinant; tags: His; chain copies: 2; label: 32P; single strand.
Data set [7] concerns the target T3, PARP1-ΔWGR. Kind of data set: EMSA; monomer-equivalent K, n=2.13±0.07; 25 mM Tris pH 7.5, 75 mM NaCl, 50 mM arginine, 0.1 mM TCEP, 0.1 ug/ul BSA, room temperature 30 min; 0.05 uM probe, 0-2.5 uM protein; native 10% PAGE in TBE. The following applies: protein: recombinant; tags: His; chain copies: 2; label: 32P; single strand.
The target in data set [8] is T1, PARP1-ΔZn3. Kind of data set: EMSA; monomer-equivalent K, n=2.17±0.12; 25 mM Tris pH 7.5, 75 mM NaCl, 50 mM arginine, 0.1 mM TCEP, 0.1 ug/ul BSA, room temperature 30 min; 0.05 uM probe, 0-2.5 uM protein; native 10% PAGE in TBE. The conditions noted are these: protein: recombinant; tags: His; chain copies: 2; label: 32P; single strand.
The target of data set [9] is T2, PARP1-ΔBRCT. The data set is described as follows: EMSA; monomer-equivalent K, n=1.94±0.11; 25 mM Tris pH 7.5, 75 mM NaCl, 50 mM arginine, 0.1 mM TCEP, 0.1 ug/ul BSA, room temperature 30 min; 0.05 uM probe, 0-2.5 uM protein; native 10% PAGE in TBE. The following applies: protein: recombinant; tags: His; chain copies: 2; label: 32P; single strand.
The target in data set [10] is T3, PARP1-ΔWGR. Kind of data set: competition EMSA; vs N1 in same reaction; 25 mM Tris pH 7.5, 75 mM NaCl, 50 mM arginine, 0.1 mM TCEP, 0.1 ug/ul BSA, room temperature 30 min; 0.05 uM probe, 0-2.5 uM protein; native 10% PAGE in TBE. The following applies: protein: recombinant; tags: His; label: 32P; single strand.
The target in data set [11] is T2, PARP1-ΔBRCT. Described as above. The conditions noted are these: protein: recombinant; tags: His; label: 32P; single strand.
For data set [12], the target named is T1, PARP1-ΔZn3. The data set is described as above. The conditions noted are these: protein: recombinant; tags: His; label: 32P; single strand.

T3 sequence (P09874 other isoform, or with tags, fused parts or gaps del518-654 | mutant): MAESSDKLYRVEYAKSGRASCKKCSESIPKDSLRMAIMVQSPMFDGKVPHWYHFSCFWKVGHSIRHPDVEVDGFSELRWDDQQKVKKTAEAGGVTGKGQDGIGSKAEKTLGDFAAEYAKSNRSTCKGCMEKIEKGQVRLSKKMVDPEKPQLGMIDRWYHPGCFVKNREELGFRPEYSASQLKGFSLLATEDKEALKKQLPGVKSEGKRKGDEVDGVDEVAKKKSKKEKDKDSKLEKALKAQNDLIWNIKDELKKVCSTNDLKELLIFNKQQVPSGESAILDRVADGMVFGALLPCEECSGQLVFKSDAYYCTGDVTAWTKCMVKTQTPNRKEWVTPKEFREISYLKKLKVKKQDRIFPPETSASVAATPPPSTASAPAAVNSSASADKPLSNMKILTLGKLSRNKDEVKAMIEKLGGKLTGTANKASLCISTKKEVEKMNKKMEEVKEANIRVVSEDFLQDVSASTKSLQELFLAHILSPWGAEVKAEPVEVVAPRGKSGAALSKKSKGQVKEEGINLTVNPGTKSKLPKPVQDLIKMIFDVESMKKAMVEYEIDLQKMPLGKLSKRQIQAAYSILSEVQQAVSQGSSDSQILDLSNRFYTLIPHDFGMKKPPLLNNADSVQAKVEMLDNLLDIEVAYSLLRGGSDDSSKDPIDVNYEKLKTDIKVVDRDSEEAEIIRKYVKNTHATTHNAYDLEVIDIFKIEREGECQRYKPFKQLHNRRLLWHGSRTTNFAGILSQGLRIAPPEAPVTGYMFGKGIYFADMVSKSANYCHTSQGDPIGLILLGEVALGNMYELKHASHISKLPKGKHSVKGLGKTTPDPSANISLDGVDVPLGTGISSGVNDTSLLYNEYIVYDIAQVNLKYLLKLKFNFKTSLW
T1 sequence (P09874 other isoform, or with tags, fused parts or gaps del232-374 | mutant): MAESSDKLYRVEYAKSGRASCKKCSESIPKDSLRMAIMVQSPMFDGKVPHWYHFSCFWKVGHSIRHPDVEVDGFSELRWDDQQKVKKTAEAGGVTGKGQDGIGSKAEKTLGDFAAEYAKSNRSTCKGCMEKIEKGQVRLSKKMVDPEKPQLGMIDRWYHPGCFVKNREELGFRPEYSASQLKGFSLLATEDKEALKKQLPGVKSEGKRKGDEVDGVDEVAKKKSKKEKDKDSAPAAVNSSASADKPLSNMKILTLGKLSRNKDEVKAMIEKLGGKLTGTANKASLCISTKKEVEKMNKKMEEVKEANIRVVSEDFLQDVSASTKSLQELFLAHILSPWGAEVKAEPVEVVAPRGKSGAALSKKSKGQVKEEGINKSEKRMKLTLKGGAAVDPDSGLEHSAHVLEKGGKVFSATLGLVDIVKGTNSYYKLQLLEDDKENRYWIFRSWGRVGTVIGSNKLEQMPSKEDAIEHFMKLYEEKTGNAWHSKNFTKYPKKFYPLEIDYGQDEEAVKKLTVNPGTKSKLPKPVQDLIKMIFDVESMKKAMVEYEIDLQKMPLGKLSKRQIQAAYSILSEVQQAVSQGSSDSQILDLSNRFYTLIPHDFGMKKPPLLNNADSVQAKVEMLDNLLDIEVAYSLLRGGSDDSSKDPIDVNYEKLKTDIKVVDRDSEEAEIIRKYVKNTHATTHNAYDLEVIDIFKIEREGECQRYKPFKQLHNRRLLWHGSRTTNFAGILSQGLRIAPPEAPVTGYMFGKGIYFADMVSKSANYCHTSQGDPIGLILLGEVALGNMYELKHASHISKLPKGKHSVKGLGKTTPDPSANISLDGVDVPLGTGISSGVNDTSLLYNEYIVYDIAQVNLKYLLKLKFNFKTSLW
T2 sequence (P09874 other isoform, or with tags, fused parts or gaps del367-494 | mutant): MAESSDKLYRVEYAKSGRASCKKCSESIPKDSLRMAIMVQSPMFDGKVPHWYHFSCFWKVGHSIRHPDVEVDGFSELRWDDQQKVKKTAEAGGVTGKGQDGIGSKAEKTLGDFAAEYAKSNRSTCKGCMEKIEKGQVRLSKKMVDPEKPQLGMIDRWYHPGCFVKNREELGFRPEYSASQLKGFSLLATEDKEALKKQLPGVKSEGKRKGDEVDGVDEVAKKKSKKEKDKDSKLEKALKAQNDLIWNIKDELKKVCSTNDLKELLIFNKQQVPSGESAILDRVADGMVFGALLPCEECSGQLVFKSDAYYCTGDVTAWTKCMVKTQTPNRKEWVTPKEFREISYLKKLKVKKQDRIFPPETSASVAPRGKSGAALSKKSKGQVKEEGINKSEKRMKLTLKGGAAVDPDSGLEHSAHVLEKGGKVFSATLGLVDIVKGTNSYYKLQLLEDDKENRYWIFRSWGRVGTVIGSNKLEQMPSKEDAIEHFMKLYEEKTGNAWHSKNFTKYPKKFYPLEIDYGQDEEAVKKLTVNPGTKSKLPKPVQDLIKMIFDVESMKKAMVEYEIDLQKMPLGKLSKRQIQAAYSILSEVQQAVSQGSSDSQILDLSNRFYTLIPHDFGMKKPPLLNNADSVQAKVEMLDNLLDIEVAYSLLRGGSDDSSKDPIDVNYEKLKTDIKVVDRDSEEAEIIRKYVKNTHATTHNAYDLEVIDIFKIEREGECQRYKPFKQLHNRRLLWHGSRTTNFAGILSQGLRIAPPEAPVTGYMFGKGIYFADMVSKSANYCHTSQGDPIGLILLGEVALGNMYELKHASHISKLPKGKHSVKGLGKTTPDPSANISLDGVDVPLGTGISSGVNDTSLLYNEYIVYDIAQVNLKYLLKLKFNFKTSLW

UAGGCACCGGCAUCUUGAC (ssRNA) [19-mer ssRNA]: the binding result with PARP1-ΔZn3 [1], in the data set with PARP1-ΔBRCT [2] and with PARP1-ΔWGR [3] was “binds” each time.
Consider CGUACGCGGAAUAGUUUAAACUGU (ssRNA) [24-mer ssRNA], for which the Ka in the data set with PARP1-ΔZn3 [4] was found to be 1.86e+06 M⁻¹; in the data set with PARP1-ΔBRCT [5] it was 2.38e+06 M⁻¹; with PARP1-ΔWGR [6], 3.4e+06 M⁻¹.
On to CCGUACGCGGGUUUAAACGA (ssRNA) [20-mer ssRNA], for which the Ka turned out to be 1.46e+06 M⁻¹ in the data set with PARP1-ΔWGR [7], 1.3e+06 M⁻¹ with PARP1-ΔZn3 [8] and 1.19e+06 M⁻¹ in the data set with PARP1-ΔBRCT [9].
Take TAGGCACCGGCATCTTGAC (ssDNA) [19-mer ssDNA]: the binding signal in the data set with PARP1-ΔWGR [10] was 26.5 ± 2.4 KDNA/KRNA; in the data set with PARP1-ΔBRCT [11], 42.3 ± 1.2 KDNA/KRNA; in the data set with PARP1-ΔZn3 [12] it was 23.1 ± 5.2 KDNA/KRNA.
